Experiments:
human PD-L1 on CHO cells = biological target: T1, human PD-L1 on CHO cells (human, UniProt Q9NZQ7 19-290); assay: flow cytometry on CHO cells stably transfected with human PD-L1, anti-NGAL detection, GeoMean BL1-H
T1 construct: whole, on cells; Stably transfected CHO cells; also called Flp-In-CHO::huPD-L1; human PD-L1-expressing CHO cells
Protocol: (§1) 5×10⁴ cells per well were incubated for 1 h in ice-cold PBS containing 5% fetal calf serum (PBS-FCS). A dilution series of the tested multimeric proteins (SEQ ID NOs: 38-44 and 46-55), the 4-1BB-targeting lipocalin mutein as included in the multimeric proteins (SEQ ID NO: 64) or the GPC3-targeting lipocalin SEQ ID NO: 90 were added to the cells and incubated for 1 h on ice. Cells were washed twice with PBS and then incubated with a rabbit anti-NGAL or a goat anti-human IgG labeled with fluorescent dye Alexa 488 for 30 min on ice. Human IgG4 isotype (SEQ ID NOs: 29 and 30) and lipocalin mutein SEQ ID NO: 8 were tested as a negative control. Cells were subsequently washed and analyzed using iQue Flow cytometer (Intellicyte Screener). Mean geometric fluorescent signals were plotted and fitted with Graphpad software using nonlinear regression (shared bottom, four parameters, variable slope).
(§2) Target-specific binding of hexavalent trimeric proteins to human 4-1BB-, OX40- or PD-L1-expressing cells was assessed by flow cytometry as described in Example 5, using CHO cells stably transfected with human 4-1BB, human OX40 or human PD-L1 (Flp-In system; Life Technologies).

human 4-1BB on cells [1] = biological target: T2, human 4-1BB on cells (human, UniProt Q07011 24-255); assay: flow cytometry on Flp-In-CHO::huCD137 (human 4-1BB) cells, anti-NGAL detection, GeoMean BL1-H
T2 construct: whole, on cells; Stably transfected CHO cells (flow cytometry) and bought Jurkat reporter cells (bioassay); also called Flp-In-CHO::hu4-1BB; human 4-1BB-expressing CHO cells
Protocol: (§3) CHO cells were stably transfected with human 4-1BB, cynomolgus 4-1BB, or a mock control using the Flp-In system (Life Technologies) according to the manufacturer's instructions. Transfected CHO cells were maintained in Ham's F12 medium (Life Technologies) supplemented with 10% Fetal Calf Serum (Biochrom) and 500 μg/ml Hygromycin B (Roth). Cells were cultured in cell culture flasks according to manufacturer's instruction (37° C., 5% CO₂ atmosphere).
as §1

[2] = biological target: T3, cynomolgus 4-1BB on CHO cells (cynomolgus, UniProt A9YYE7 24-254); assay: flow cytometry on Flp-In-CHO::cyCD137 (cynomolgus 4-1BB) cells, anti-NGAL detection, GeoMean BL1-H [Cont'd) B]
T3 construct: also called Flp-In-CHO::cyno4-1BB; cynomolgus 4-1BB-expressing CHO cells
Protocol: as §3, §1

[3] = biological target: T4, human GPC3 on HepG2 cells (human, UniProt P51654 25-554); assay: flow cytometry on HepG2 cells (human GPC3), anti-NGAL detection, GeoMean BL1-H [Cont'd) C]
T4 construct: whole, on cells; Endogenous GPC3 of the tumor cell line; also called GPC3-positive tumor cell line HepG2; human GPC3-expressing HepG2 cells
Protocol: (§4) GPC3-positive tumor cell line HepG2 was cultured in Dulbecco's Modified Eagle's Medium ([…], Pan Biotech) supplemented with 10% Fetal Calf Serum (Sigma-Aldrich) and in cell culture flasks according to manufacturer's instruction (37° C., 5% CO₂ atmosphere).
as §1

[4] = biological target: T5, recombinant hu4-1BB-His (human 4-1BB with a C-terminal polyhistidine tag, R&D Systems) (human, UniProt Q07011 24-186); assay: ELISA, hu4-1BB-His coated on the plate, bound agent detected with anti-NGAL-HRP
T5 construct: Bought; not shown: C-terminal polyhistidine tag
Protocol: C-terminal His-tagged 4-1BB or GPC3 was coated on a microtiter plate, and the tested agents were titrated starting with the highest concentration of 100 nM. Bound agents under study were detected via anti-NGAL-HRP. The data was fit with a 1:1 binding model with the EC₅₀ value and the maximum signal as free parameters, and a slope that was fixed to one.
(§5) Recombinant hu4-1BB-His (human 4-1BB with a C-terminal polyhistidine tag, R&D Systems) at the concentration of 1 μg/mL in PBS was coated overnight on microtiter plates at 4° C. After washing with PBS-0.05% T (PBS supplemented with 0.05% (v/v) Tween 20), the plates were blocked with 2% BSA (w/v) in PBS-0.1% T (PBS supplemented with 0.1% (v/v) Tween 20) for 1 h at room temperature. After washing with 100 μL PBS-0.05% T five times, exemplary multimeric proteins (SEQ ID NOs: 38-44 and 46-53) or 4-1BB-specific lipocalin mutein as included in the multimeric protein (SEQ ID NO: 64) at different concentrations, ranging from 100 to 0.002 nM, were added to the wells and incubated for 1 h at room temperature, followed by another wash step. Bound molecules under study were detected by incubation with 1:1000 diluted anti-NGAL-HRP in PBS-0.1% T-2% BSA. After an additional wash step, fluorogenic HRP substrate (QuantaBlu, Thermo) was added to each well and the fluorescence intensity was detected using a fluorescence microplate reader.

hu4-1BB-Fc (R&D Systems) = biological target: T6, hu4-1BB-Fc (R&D Systems) (human, UniProt Q07011 24-186); assay: SPR (Biacore 8K), hu4-1BB-Fc captured by anti-human IgG Fc; apparent value, 1:1 fit
T6 construct: Bought; also called human 4-1BB; not shown: human IgG Fc of the bought fusion
Outline: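 hu4-1BB-Fc at 0.3 μg/mL captured for 180 s on amine-coupled anti-human IgG Fc (CM5 chip). Analyte contact 180 s, dissociation 1200 s or 3000 s, 30 μL/min, 25° C. Double-referenced sensorgrams fitted to a 1:1 binding model.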

[5] = biological target: T7, huGPC3-His (human GPC3 with C-terminal polyhistidine tag, R&D Systems) (human, UniProt P51654 25-559, limits assumed); assay: ELISA, huGPC3-His coated, detection anti-NGAL-HRP
T7 construct: Bought; not shown: C-terminal polyhistidine tag
Protocol: as §5
The same ELISA setup was also employed to determine the binding potency of exemplary bispecific multimeric proteins (SEQ ID NO: 54 and SEQ ID NO: 55) to GPC3, where huGPC3-His (human GPC3 with C-terminal polyhistidine tag, R&D Systems) was instead coated on a microtiter plate. The testing agents were similarly titrated and bound agents detected.

human 4-1BB on cells [6] = biological target: T2, human 4-1BB on cells; assay: flow cytometry, Flp-In-CHO::hu4-1BB cells
Outline: (§6)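 Flp-In CHO cells stably expressing human or cynomolgus 4-1BB (mock-transfected control), 5×10⁴/well, incubated 1 h on ice with dilution series of test proteins. Binding detected with rabbit anti-NGAL or Alexa 488 anti-human IgG (30 min, ice); geometric mean fluorescence fitted by four-parameter nonlinear regression.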

human 4-1BB on cells [7] = biological target: T2, human 4-1BB on cells; assay: cell-based or functional assay
[8] = biological target: T4, human GPC3 on HepG2 cells; assay: flow cytometry, HepG2 cells
Protocol: as §4, §1

[9] = biological target: T7, huGPC3-His (human GPC3 with C-terminal …); assay: dual-binding ELISA, huGPC3-His coated, detection with biotinylated hu4-1BB-His and Extravidin-HRP
Protocol: Recombinant huGPC3-His (human GPC3 with C-terminal polyhistidine tag, R&D Systems) at the concentration of 1 μg/mL in PBS was coated overnight on microtiter plates at 4° C. After washing with PBS-0.05% T (PBS supplemented with 0.05% (v/v) Tween 20), the plates were blocked with 2% BSA (w/v) in PBS-0.1% T (PBS supplemented with 0.1% (v/v) Tween 20) for 1 h at room temperature. After washing with 100 μL PBS-0.05% T five times, exemplary multimeric proteins (SEQ ID NOs: 54 and 55) at different concentrations, ranging from 100 to 0.002 nM, were added to the wells and incubated for 1 h at room temperature, followed by another wash step. Bound molecules under study were detected by incubation with 1 μg/mL recombinant hu4-1BB-His (biotinylated human 4-1BB with C-terminal polyhistidine tag, Sino Biological) in PBS-0.1% T-2% BSA for 1 h. This step was followed by a further wash step and incubation with 1:5000 diluted Extravidin-HRP in PBS-0.1% T-2% BSA. After an additional wash step, fluorogenic HRP substrate (QuantaBlu, Thermo) was added to each well and the fluorescence intensity was detected using a fluorescence microplate reader.

[10] = biological target: T3, cynomolgus 4-1BB on CHO cells; assay: flow cytometry, Flp-In-CHO::cyno4-1BB cells
Outline: as §6

[11] = biological target: T5, recombinant hu4-1BB-His (human 4-1BB …); assay: ELISA, hu4-1BB-His coated, detection anti-NGAL-HRP
Outline: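 Plates coated with hu4-1BB-His (1 μg/mL, overnight, 4° C) and blocked with 2% BSA; test proteins at 100 to 0.002 nM bound 1 h at room temperature. Detection by anti-NGAL-HRP with fluorogenic substrate; EC₅₀ from 1:1 sigmoidal fit, slope fixed to one.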

human 4-1BB on cells [12] = biological target: T2, human 4-1BB on cells; assay: flow cytometry on CHO cells stably transfected with human 4-1BB, anti-NGAL detection, GeoMean BL1-H
Protocol: as §1, §2

T2 sequence (Q07011 24-255): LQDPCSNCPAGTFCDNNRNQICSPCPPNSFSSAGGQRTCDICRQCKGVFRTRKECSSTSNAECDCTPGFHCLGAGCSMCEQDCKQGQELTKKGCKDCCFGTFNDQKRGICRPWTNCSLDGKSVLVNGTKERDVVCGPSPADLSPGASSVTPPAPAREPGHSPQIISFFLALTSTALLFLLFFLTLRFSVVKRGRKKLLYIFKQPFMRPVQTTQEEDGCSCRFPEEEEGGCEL
T3 sequence (A9YYE7 entry or part of it limits assumed): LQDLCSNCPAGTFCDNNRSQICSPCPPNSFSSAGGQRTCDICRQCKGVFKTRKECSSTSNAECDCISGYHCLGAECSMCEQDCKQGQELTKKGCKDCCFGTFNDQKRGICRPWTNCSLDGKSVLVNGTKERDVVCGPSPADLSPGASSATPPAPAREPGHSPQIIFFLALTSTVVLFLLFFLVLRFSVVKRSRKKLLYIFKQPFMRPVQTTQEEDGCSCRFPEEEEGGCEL
T4 sequence (P51654 25-554 limits assumed): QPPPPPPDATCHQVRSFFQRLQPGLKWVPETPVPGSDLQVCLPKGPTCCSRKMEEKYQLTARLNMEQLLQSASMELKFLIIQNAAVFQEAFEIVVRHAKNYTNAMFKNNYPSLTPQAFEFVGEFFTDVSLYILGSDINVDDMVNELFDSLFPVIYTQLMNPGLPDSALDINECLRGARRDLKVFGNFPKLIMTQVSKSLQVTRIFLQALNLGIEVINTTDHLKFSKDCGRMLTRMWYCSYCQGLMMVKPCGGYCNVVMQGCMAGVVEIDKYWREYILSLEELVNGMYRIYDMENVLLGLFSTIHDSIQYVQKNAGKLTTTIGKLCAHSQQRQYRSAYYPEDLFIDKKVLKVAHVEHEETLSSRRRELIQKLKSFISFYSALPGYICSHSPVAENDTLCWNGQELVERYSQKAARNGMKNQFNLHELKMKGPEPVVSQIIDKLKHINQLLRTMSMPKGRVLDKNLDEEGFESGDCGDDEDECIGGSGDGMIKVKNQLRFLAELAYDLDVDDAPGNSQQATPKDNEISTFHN
T7 sequence (P51654 25-559 limits assumed): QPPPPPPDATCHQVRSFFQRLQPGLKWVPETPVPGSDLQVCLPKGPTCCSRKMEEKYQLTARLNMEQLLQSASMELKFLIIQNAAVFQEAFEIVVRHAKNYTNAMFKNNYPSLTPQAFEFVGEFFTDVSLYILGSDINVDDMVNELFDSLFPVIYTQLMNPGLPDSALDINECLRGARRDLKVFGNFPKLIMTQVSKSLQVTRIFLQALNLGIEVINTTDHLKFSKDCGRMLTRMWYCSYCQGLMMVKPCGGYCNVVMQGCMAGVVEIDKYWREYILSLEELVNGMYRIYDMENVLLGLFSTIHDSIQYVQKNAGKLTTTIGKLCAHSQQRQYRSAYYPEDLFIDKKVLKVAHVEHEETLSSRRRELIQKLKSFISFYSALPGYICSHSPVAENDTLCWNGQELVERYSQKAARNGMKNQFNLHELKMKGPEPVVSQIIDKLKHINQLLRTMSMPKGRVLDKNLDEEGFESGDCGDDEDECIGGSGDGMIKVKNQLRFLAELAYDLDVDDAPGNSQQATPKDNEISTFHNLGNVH
T1 sequence (Q9NZQ7 19-290): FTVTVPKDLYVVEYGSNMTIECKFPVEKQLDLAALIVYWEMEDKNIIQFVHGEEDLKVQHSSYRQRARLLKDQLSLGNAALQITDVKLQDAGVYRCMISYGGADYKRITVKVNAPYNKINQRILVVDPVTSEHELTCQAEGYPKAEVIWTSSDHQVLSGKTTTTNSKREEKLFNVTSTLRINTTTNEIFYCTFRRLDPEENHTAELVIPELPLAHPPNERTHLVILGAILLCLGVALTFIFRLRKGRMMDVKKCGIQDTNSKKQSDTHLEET

B1: SEQ ID NO: 8 (designed binder)
lipocalin mutein: QDSTSDLIPAPPLSKVPLQQNFQDNQFHGKWYVVGLAGNAILREDKDPQKMYATIYELKEDKSYNVTSVLFRKKKCDYWIRTFVPGSQPGEFTLGNIKSYPGLTSYLVRVVSTNYNQHAMVFFKKVSQNREYFKITLYGRTKELTSELKENFIRFSKSLGLPENHIVFPVPIDQCIDG
B1: no binding (tested: about 7 nM) (human PD-L1 on CHO cells); no binding (tested: about 200 nM) (human 4-1BB on cells [1]); no binding (tested: about 200 nM) [2]. B1: no binding (tested: about 200 nM) [3]; no binding (tested: 100 nM) [4].

B2: bispecific multimeric protein SEQ ID NO: 55 (designed binder)
chain: QDSTSDLIPAPPLSKVPLQQNFQDNQFQGKWYVVGRAGNVGLREDKDPPKMWATIYELKEDKSYDVTNVRFARKKCTYSIGTFVPGSQPGEFTLGQIKSEPGGTANLVRVVSTNYNQHAMVFFKEVYQNREIFFIILYGRTKELTSELKENFIRFSKSLGLPENHIVFPVPIDQCIDGGGGGSGGGGSGGGGSGVRLWATRQAMLGQVHEVPEGWLIFVAEQEELYVRVQNGFRKVQLEARTPLGGGGSGGGGSGGGGSQDSTSDLIPAPPLSKVPLQQNFQDNQFHGKWYVVGQAGNIRLREDKDPIKMMATIYELKEDKSYDVTMVKFDDKKCMYDIWTFVPGSQPGEFTLGKIKSFPGHTSSLVRVVSTNYNQHAMVFFKFVFQNREEFYITLYGRTKELTSELKENFIRFSKSLGLPENHIVFPVPIDQCIDGGGSGGAPEQKLISEEDLGSHHHHHHHHHH
With B2 the Kd (hu4-1BB-Fc (R&D Systems)) was 0.71 nM, the koff (hu4-1BB-Fc (R&D Systems)) was 5.99e-05 s⁻¹ and the kon (hu4-1BB-Fc (R&D Systems)) was 84000 M⁻¹ s⁻¹. The EC50 [5] was 0.1 nM, the EC50 (human 4-1BB on cells [6]) was 4.08 nM and the “EC50 [nM], 4-1BB bioassay (NFκB-luc2/4-1BB Jurkat luminescence), with HepG2 cells” value (human 4-1BB on cells [7]) was 0.69 nM. It also gave an EC50 [8] of 2.98 nM, an EC50 [9] of 1.3 nM and an EC50 [10] of 6.62 nM.

B3: multimeric protein SEQ ID NO: 52 (designed binder)
chain: QDSTSDLIPAPPLSKVPLQQNFQDNQFHGKWYVVGQAGNIRLREDKDPIKMMATIYELKEDKSYDVTMVKFDDKKCMYDIWTFVPGSQPGEFTLGKIKSFPGHTSSLVRVVSTNYNQHAMVFFKFVFQNREEFYITLYGRTKELTSELKENFIRFSKSLGLPENHIVFPVPIDQCIDGGGGGSGGGGSGGGGSQDSTSDLIPAPPLSKVPLQQNFQDNQFHGKWYVVGQAGNIRLREDKDPIKMMATIYELKEDKSYDVTMVKFDDKKCMYDIWTFVPGSQPGEFTLGKIKSFPGHTSSLVRVVSTNYNQHAMVFFKFVFQNREEFYITLYGRTKELTSELKENFIRFSKSLGLPENHIVFPVPIDQCIDGGGGGSGGGGSGGGGSGVRLWATRQAMLGQVHEVPEGWLIFVAEQEELYVRVQNGFRKVQLEARTPLGGSGGAPEQKLISEEDLGSHHHHHHHHHH
For B3, the Kd (hu4-1BB-Fc (R&D Systems)) was 0.24 nM, the koff (hu4-1BB-Fc (R&D Systems)) was 2.19e-05 s⁻¹ and the kon (hu4-1BB-Fc (R&D Systems)) was 90400 M⁻¹ s⁻¹. For the same binder, the EC50 [11] was 0.12 nM, the EC50 (human 4-1BB on cells [6]) was 1.5 nM and the “EC50 [nM], 4-1BB bioassay (NFκB-luc2/4-1BB Jurkat luminescence), with HepG2 cells” value (human 4-1BB on cells [7]) was 1 nM. For the same binder, the “EC50 (read off the curve)” value (human 4-1BB on cells [12]) was about 2 nM and the EC50 [10] was 3.36 nM.

Source: US20230227568A1 (Pieris, published 2023)
